Laboratory results: patent publication US20100184134A1 (SUTRO BIOPHARMA, published 2010)

Tests used:
[1] = molecular target: T1, E. coli PheT subunit of phenylalanyl-tRNA synthetase (E. coli, UniProt P07395 1-795); assay: IMAC pull-down of cell-free produced PheRS(A294G)
T1 construct: also called PheT domain
T1 sequence: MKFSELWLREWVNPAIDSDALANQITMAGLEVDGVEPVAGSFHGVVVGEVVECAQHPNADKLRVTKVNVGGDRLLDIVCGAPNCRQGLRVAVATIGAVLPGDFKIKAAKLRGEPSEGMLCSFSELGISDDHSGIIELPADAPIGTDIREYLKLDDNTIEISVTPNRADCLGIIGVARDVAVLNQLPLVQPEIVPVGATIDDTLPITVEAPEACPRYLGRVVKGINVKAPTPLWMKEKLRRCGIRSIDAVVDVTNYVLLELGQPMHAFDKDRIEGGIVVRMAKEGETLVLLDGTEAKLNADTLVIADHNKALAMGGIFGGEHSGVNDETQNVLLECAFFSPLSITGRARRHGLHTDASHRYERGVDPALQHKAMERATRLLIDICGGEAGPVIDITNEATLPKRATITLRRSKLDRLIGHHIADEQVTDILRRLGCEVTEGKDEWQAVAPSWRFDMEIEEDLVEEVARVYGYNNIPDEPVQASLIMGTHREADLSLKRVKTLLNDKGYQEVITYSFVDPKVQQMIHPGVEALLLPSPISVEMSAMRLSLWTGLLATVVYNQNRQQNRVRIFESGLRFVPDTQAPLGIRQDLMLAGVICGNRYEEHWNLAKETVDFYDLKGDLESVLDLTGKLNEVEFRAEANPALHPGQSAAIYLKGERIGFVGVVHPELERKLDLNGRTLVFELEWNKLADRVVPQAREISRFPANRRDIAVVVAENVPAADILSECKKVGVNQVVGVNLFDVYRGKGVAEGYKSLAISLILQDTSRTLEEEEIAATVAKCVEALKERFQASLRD

PheT MP = molecular target: T2, PheT MP (E. coli, UniProt P07395 1-795); assay: IMAC co-purification after cell-free co-synthesis of PheS(A294G) and PheT variant
T2 construct: also called PheT R794M R788P
T2 sequence: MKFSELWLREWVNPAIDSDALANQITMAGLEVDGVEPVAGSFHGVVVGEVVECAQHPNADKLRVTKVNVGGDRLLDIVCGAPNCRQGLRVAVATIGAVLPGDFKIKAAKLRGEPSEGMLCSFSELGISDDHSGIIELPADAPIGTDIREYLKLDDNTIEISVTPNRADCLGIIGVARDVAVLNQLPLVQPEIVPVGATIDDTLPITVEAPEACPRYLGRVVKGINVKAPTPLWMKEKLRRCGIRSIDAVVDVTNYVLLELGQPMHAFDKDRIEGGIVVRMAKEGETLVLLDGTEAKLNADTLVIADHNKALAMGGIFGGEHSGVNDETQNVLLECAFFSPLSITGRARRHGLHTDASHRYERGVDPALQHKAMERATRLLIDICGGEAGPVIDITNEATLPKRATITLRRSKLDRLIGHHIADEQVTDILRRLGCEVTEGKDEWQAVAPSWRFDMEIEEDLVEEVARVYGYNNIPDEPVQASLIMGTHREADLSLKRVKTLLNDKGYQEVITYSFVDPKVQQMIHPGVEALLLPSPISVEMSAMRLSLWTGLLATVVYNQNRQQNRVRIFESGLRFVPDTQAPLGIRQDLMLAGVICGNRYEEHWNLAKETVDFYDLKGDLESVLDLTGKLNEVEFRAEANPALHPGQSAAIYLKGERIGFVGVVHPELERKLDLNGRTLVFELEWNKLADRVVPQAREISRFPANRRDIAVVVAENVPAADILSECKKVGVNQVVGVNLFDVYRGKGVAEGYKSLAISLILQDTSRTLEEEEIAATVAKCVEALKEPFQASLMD

PheT AP = molecular target: T3, PheT AP (E. coli, UniProt P07395 1-795); assay: as above
T3 construct: also called PheT R794A A791P
T3 sequence: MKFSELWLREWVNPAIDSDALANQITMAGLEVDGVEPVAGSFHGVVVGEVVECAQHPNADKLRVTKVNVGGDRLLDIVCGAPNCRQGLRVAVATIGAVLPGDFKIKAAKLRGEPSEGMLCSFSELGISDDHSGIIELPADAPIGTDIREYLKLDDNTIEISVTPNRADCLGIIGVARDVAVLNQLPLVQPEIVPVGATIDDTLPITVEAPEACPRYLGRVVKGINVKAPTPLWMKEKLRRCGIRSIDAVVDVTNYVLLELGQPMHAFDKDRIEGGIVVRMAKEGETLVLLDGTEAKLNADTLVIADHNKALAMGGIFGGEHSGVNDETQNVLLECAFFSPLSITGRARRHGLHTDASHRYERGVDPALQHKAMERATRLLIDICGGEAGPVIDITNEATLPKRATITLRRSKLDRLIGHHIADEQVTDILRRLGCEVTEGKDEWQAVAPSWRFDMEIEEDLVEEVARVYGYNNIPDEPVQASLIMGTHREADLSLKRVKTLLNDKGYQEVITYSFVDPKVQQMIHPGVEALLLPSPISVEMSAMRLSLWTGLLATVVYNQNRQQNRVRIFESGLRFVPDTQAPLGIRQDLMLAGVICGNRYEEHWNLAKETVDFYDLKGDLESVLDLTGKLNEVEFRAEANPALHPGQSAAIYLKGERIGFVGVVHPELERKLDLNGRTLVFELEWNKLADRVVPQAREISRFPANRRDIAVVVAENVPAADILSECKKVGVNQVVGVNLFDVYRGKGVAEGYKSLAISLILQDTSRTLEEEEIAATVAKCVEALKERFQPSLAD

PheT K = molecular target: T4, PheT K (E. coli, UniProt P07395 1-795); assay: as above
T4 construct: also called PheT R794K
T4 sequence: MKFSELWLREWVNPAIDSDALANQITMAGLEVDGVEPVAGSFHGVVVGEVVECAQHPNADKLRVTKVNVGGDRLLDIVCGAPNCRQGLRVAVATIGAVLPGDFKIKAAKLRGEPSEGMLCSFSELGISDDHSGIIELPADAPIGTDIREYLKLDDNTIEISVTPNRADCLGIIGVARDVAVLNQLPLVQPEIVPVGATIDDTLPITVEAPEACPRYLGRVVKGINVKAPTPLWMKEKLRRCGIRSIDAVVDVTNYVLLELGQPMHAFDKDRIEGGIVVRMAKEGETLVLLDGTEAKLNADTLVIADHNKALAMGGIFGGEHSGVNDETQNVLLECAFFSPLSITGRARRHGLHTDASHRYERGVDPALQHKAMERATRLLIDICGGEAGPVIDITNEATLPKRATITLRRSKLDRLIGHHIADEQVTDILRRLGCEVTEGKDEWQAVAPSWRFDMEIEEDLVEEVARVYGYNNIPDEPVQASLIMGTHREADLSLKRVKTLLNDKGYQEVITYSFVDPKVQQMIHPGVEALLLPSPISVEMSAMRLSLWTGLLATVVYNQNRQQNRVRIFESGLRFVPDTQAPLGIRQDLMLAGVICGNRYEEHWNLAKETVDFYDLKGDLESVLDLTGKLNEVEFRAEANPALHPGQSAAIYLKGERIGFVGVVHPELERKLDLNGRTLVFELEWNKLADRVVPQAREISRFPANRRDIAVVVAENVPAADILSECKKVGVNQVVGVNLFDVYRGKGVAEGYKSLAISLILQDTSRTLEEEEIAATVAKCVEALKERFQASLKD

PheT KV = molecular target: T5, PheT KV (E. coli, UniProt P07395 1-795); assay: as above
T5 construct: also called PheT R794K A15V
T5 sequence: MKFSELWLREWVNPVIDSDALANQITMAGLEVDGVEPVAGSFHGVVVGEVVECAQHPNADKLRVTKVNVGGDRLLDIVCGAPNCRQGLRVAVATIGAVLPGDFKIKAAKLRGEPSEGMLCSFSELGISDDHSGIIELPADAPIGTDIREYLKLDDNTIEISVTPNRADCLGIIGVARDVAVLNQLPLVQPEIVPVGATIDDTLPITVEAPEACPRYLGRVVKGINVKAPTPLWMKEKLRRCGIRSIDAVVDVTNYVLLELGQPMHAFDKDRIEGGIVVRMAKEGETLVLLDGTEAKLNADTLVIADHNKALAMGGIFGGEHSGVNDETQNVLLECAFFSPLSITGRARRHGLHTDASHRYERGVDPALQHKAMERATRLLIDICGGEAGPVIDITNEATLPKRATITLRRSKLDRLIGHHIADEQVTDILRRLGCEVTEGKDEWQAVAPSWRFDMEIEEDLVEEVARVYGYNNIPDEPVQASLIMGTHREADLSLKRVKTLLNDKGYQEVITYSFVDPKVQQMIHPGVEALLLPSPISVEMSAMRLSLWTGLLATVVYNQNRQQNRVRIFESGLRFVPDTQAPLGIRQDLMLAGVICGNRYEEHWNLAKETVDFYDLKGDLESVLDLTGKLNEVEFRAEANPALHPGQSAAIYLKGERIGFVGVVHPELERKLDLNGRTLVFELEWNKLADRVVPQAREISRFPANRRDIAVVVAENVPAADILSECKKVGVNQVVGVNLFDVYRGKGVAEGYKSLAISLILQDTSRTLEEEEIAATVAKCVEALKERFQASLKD

Measured: binding result

B1: 6X His-tagged E. coli PheS(A294G) subunit of phenylalanyl-tRNA synthetase (enzyme)
chain: MSHLAELVASAKAAISQASDVAALDNVRVEYLGKKGHLTLQMTTLRELPPEERPAAGAVINEAKEQVQQALNARKAELESAALNARLAAETIDVSLPGRRIENGGLHPVTRTIDRIESFFGELGFTVATGPEIEDDYHNFDALNIPGHHPARADHDTFWFDTTRLLRTQTSGVQIRTMKAQQPPIRIIAPGRVYRNDYDQTHTPMFHQMEGLIVDTNISFTNLKGTLHDFLRNFFEEDLQIRFRPSYFPFTEPSAEVDVMGKNGKWLEVLGCGMVHPNVLRNVGIDPEVYSGFGFGMGMERLTMLRYGVTDLRSFFENDLRFLKQFK
notes: also called 6XHisPheS(A294G); PheS(A294G) domain
binds: [1] | PheT MP | PheT AP | PheT K | PheT KV
